This note sets out measurements from article PMC9454804.

For test [1], the target named is Vascular Endothelial Growth Factor Receptor 1 (VEGFR1) (mouse (endogenous in C57BL/6 and eNOS-KO skeletal muscle)) (UniProt P35969).
The target is the same in test [2]. The source holds these as a separate data set.
The target is the same in test [3]. The source holds these as a separate data set.

Sequence of UniProt P35969 (P35969 23-1333 S1181G): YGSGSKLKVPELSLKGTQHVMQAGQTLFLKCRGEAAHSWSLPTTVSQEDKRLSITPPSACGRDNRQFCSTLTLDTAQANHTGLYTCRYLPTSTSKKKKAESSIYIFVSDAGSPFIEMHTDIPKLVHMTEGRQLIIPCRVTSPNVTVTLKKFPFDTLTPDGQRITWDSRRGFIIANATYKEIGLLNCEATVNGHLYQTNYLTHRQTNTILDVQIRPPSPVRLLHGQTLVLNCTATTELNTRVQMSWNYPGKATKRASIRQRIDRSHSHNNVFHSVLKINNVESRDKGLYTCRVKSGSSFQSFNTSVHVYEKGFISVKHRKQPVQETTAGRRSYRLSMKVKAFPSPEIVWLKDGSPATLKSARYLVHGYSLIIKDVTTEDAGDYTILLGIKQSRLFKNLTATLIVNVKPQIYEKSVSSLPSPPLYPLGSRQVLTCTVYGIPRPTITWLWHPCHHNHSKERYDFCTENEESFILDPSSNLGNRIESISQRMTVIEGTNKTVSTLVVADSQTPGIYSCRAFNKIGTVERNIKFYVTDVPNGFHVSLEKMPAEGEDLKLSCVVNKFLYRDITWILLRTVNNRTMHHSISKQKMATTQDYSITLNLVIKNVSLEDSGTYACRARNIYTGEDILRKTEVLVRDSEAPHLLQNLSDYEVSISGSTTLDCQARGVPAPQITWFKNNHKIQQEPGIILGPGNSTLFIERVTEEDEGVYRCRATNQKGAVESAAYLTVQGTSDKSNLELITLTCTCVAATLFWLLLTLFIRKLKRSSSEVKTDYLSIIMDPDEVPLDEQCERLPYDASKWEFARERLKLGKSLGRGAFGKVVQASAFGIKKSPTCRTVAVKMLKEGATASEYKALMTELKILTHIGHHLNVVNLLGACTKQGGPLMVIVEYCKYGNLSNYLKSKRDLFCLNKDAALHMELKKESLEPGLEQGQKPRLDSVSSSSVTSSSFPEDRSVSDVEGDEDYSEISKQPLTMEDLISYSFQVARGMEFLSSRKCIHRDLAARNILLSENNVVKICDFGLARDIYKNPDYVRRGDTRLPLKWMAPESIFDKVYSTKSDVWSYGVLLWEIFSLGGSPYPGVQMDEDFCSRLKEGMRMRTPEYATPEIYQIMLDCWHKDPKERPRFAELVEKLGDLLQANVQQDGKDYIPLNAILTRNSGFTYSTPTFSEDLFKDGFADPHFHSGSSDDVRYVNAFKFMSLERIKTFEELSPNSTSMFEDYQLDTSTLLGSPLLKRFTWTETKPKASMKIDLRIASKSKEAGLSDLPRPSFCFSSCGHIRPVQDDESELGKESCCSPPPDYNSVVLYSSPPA

“anti-angiogenic VEGF-A isoform VEGF165b (ligand)” showed a pVEGFR1(Y1333) activation in VEGFR1 pull-down fractions, non-ischemic HFD vs. non-ischemic normal chow muscle in test [1] of 1.5 fold. In test [2], this substance returned a pSTAT3 activation, HFD-ischemic muscle treated with VEGF165b-Ab vs. IgG at day 3 post-HLI of 1.5 fold and a pVEGFR1(Y1333) activation, HFD-ischemic muscle treated with VEGF165b-Ab vs. IgG at day 3 post-HLI of 1.5 fold. In test [3], this substance registered a pSTAT3 activation, eNOS-KO ischemic muscle treated with VEGF165b-Ab vs. IgG of 1.4 fold and a pVEGFR1(Y1333) activation in VEGFR1 pull-down fractions, eNOS-KO ischemic muscle treated with VEGF165b-Ab vs. IgG of 1.3 fold.
